Measurements from patent publication US20080008707A1, “Denatured collagen peptides and uses thereof” (Cell-Matrix, Inc., priority 2006, published 2008).
Square brackets hold non-standard residues; d marks the D form. Ends that are not written are not given here. Hyp = O=C(O)[C@@H]1C[C@@H](O)CN1

Assays:
[1] = system: D93; experiment: Peptide array screening ELISA: D93 binding to biotinylated synthetic collagen peptides; conditions: for MAB BINDING (OD450nM): D93 at 10 μg/mL, average of duplicate tests, secondary array, proline or hydroxyproline at each proline position; for binding activity by D93 (primary peptide array): 10 μg/mL D93, 16-mers with N-terminal biotin, 50% proline/hydroxyproline mixture at each proline
Protocol: The synthesis of short peptide arrays or single peptides was contracted to New England Peptide, Gardner, Mass. A peptide array (primary array) was initially constructed which corresponded to specific locations in the protein sequences that were identified in by N-terminal sequencing reactions as described above. The peptide array consisted of a 96-well microplate template containing individual, overlapping peptides (˜1 to 10 mg/well) corresponding to a contiguous sequence of the human collagen type alpha I chain (between residues G1,064 and T1,669) with an N-terminal biotin and 50% hydroxyproline or proline mixture for each proline residue, with a length of 16 amino acids and overlap of 10 amino acids with the adjacent protein sequence. Peptides were dissolved in 400 μL DMSO to achieve a stock peptide concentration of 2.5 to 25 mg/mL.
The ELISA assay described above was used screen peptides for D93 binding activity. Briefly, 100 μL of streptavidin at 10 μg/mL in PBS was coated onto 96-well microtiter plates from 12 to 18 hours at 2 to 8° C. Plates were blocked with 1% BSA/PBS as above. D93 was diluted to 10 μg/mL in 1% BSA/PBS, and 100 μL per well was added, in duplicate, as described above and incubated for 1 hour at room temperature. The secondary anti-human IgG-HRP, substrate development and plate reader steps were as described above. Peptides which were bound by D93 were further tested for inhibition of D93 binding to human heat-denatured-collagen IV using the ELISA described above. Peptides and D93 antibody were prepared at a 2× concentration in 1% BSA/PBS of the final test concentration and pre-mixed in 1.7 mL microfuge for 15 minutes prior to adding to the microplate wells.
A second peptide array was constructed based on permutations of the protein sequence (collagen IV alpha I chain residues 1337-1352, termed “peptide 40” of the primary array) in the primary array that reacted with D93. The secondary array consisted of individual peptides with either proline or hydroxyproline at each proline residue in the peptide PGAKGLPGPPGPPGPY (SEQ ID NO: 1).

[2] = molecular target: HUI77, murine IgM anti-denatured-collagen monoclonal antibody; experiment: competition ELISA on coated dn-collagen IV
[3] = molecular target: D93, recombinant humanized IgG1 kappa antibody targeting denatured-collagen; experiment: competition ELISA on coated human dn-collagen IV
Chain of D93, recombinant humanized IgG1 kappa antibody targeting denatured-collagen (heavy, as listed by the source, chain 1 of 2): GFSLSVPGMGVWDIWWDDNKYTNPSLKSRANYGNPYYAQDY
Chain of D93, recombinant humanized IgG1 kappa antibody targeting denatured-collagen (light, as listed by the source, chain 2 of 2): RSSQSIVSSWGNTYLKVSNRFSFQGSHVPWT

[4] = molecular target: HUI77, murine IgM anti-denatured-collagen monoclonal antibody; experiment: competition ELISA on coated dn-collagen IV; * separate assay
[5] = molecular target: D93, recombinant humanized IgG1 kappa antibody targeting denatured-collagen; experiment: competition ELISA on coated human dn-collagen IV; * separate assay

Molecule	MAB BINDING (OD450nM) [1]	binding activity by D93 (primary peptide array) [1]	% inhibition of HUI77 binding to dn-collagen IV, peptide 10 µM [2]	% inhibition of HUI77 binding to dn-collagen IV, peptide 100 µM [2]	% inhibition of HUI77 binding to dn-collagen IV, peptide 1000 µM [2]	% inhibition of D93 binding to dn-collagen IV, peptide 1 µM [3]	% inhibition of D93 binding to dn-collagen IV, peptide 10 µM [3]	% inhibition of D93 binding to dn-collagen IV, peptide 100 µM [3]	% inhibition of D93 binding to dn-collagen IV, peptide 1000 µM [3]	% inhibition of HUI77 binding to dn-collagen IV, peptide 1000 µM [4]	% inhibition of D93 binding to dn-collagen IV, peptide 1000 µM [5]	% inhibition of HUI77 binding to dn-collagen IV, peptide 100 µM [4]	% inhibition of D93 binding to dn-collagen IV, peptide 10 µM [5]	% inhibition of D93 binding to dn-collagen IV, peptide 100 µM [5]	% inhibition of HUI77 binding to dn-collagen IV, peptide 10 µM [4]	% inhibition of D93 binding to dn-collagen IV, peptide 1 µM [5]
1 (PGAKGLPGPPGPPGPY) [compound 1]	0.136 OD450nM															
13: peptide 13 of the primary collagen IV alpha 1 array: biotinylated 16-mer, 50% proline/hydroxyproline at each proline (PGAKGLPGPPGPPGPY; not fully specified; also: biotinylated, position not given here) [compound 13]	0.348 OD450nM	higher activity than the others														
peptide 40: primary array peptide, collagen IV alpha I chain residues 1337-1352, 50% proline/hydroxyproline mixture; b687 equates it with SEQ ID NO: 2 (XGAKGLPGPXGPXGPY; not fully specified; X: randomised place (mixture))		higher activity than the others														
CTWPRHHTTDALL [non-collagen control peptide No. 6, … (SEQ ID NO: 39)]			6.5%	6.5%	6.5%	4.5%	1%	0%	3.5%	11.1%	4.9%					
GP[Hyp]GP[Hyp]GPY [synthetic peptide No. 3, … (SEQ ID NO: 30)]			8.5%	12%	78%	33%	82.5%	94%	94%	63%		0%	79.9%	90.3%		

Other lines, results leading:

MAB BINDING (OD450nM) [1]	binding activity by D93 (primary peptide array) [1]	% inhibition of HUI77 binding to dn-collagen IV, peptide 10 µM [2]	% inhibition of HUI77 binding to dn-collagen IV, peptide 100 µM [2]	% inhibition of HUI77 binding to dn-collagen IV, peptide 1000 µM [2]	% inhibition of D93 binding to dn-collagen IV, peptide 1 µM [3]	% inhibition of D93 binding to dn-collagen IV, peptide 10 µM [3]	% inhibition of D93 binding to dn-collagen IV, peptide 100 µM [3]	% inhibition of D93 binding to dn-collagen IV, peptide 1000 µM [3]	% inhibition of HUI77 binding to dn-collagen IV, peptide 1000 µM [4]	% inhibition of D93 binding to dn-collagen IV, peptide 1000 µM [5]	% inhibition of HUI77 binding to dn-collagen IV, peptide 100 µM [4]	% inhibition of D93 binding to dn-collagen IV, peptide 10 µM [5]	% inhibition of D93 binding to dn-collagen IV, peptide 100 µM [5]	% inhibition of HUI77 binding to dn-collagen IV, peptide 10 µM [4]	% inhibition of D93 binding to dn-collagen IV, peptide 1 µM [5]	Molecule
		8%	10.5%	10%	11%	6%	4%	11.5%								[Hyp]GAKGLPGP [synthetic peptide No. 13, … (SEQ ID NO: 17)]
		6.5%	18%	86%	13%	35.5%	85.5%	92.5%								LPGP[Hyp]GP[Hyp]G [synthetic peptide No. 20, … (SEQ ID NO: 21)]
		1.5%	2%	1%	5%	4.5%	1.5%	6.5%								GPPGPPG (also: hydroxyproline at marked P positions, if any, marking lost) [synthetic peptide No. 23, GPPGPPG (SEQ ID NO: 33)]
		2.5%	8%	3.5%	7%	6%	3.5%	7.5%								GPPG (also: hydroxyproline marking, if any, lost) [synthetic peptide No. 22, GPPG (SEQ ID NO: 35)]
		10%	14%	73%	12%	41.5%	89%	92.5%								LPGP[Hyp]GP[Hyp]GP [synthetic peptide No. 5, … (SEQ ID NO: 20)]
		7.5%	18%	86.5%	30%	81%	93.5%	93.5%								[Hyp]GAKGLPGP[Hyp]GP[Hyp]GPY [synthetic peptide No. 12, … (SEQ ID NO: 2)]
									3.7%	11.6%	0%	7.8%	8.3%	10.2%	5.4%	LPGFPG (also: hydroxyproline marking, if any, lost) [synthetic peptide No. 24, LPGFPG (SEQ ID NO: 38)]
		4.5%	9%	62%	11%	43%	89.5%	93.5%								F[Hyp]GP[Hyp]GPDGL[Hyp]GSMGP[Hyp]G [synthetic peptide No. 7, … (SEQ ID NO: 36)]
